In this experiment the target is porcine stomach mucin (porcine). Description: SPR. In general terms: In SPR one partner is held on a chip, and binding of the other changes the refractive index at the surface.

B1: odorranalectin (peptide)
peptide: YASPKCFRYPNGVLACT
As usually defined, the Kd is the constant that tells how readily two partners part at equilibrium. In turn, B1 had a Kd of 1910 nM.

These data come from publication PMC2440032 (2008).
